The series concerns the molecule itself. Kind of series: SEC.

Where a chain is given by its changes, count along the chain named. In names and notes the source's numbering stands.

B1: Plasmodium falciparum GMP synthetase wildtype (enzyme)
chain: MEGEEYDKILVLNFGSQYFHLIVKRLNNIKIFSETKDYGVELKDIKDMNIKGVILSGGPYSVTEAGSPHLKKEVFEYFLEKKIPIFGICYGMQEIAVQMNGEVKKSKTSEYGCTDVNILRNDNINNITYCRNFGDSSSAMDLYSNYKLMNETCCLFENIKSDITTVWMNHNDEVTKIPENFYLVSSSENCLICSIYNKEYNIYGVQYHPEVYESLDGELMFYNFAYNICKCKKQFDPIRYHELELKNIEKYKHDHYVIAAMSGGIDSTVAAAYTHKIFKERFFGIFIDNGLLRKNEAENVYTFLKSTFPDMNITKIDASENFLSNLQGVTDPEQKRKIIGKLFIEEFEKAVNNIDIDINKTFLLQGTLYPDIIESKCSKNLSDTIKTHHNVGGLPKNLKFKLFEPFKYLFKDDVKTLSRELNLPEEITNRHPFPGPGLAIRVIGEINKHKLNILREVDDIFINDLKQYGLYNQISQAFAVLLSSKSVGVRGDARSYDYVCVLRAVKTSSFMTANWYQIPYDILDKITTRILSEVKGVNRILYDVSSKPPATIEFE
As to B1, the binding result is “binds”.

B2: PfGMPS_E213A (enzyme, Plasmodium falciparum)
chain: B1 chain with E213A
Turning to B2, the binding result is on record as “binds”.

B3: PfGMPS_H388A (enzyme, Plasmodium falciparum)
chain: B1 chain with H388A
Consider B3, for which the binding result is given as “binds”.

B4: PfGMPS K547L (enzyme, Plasmodium falciparum)
chain: B1 chain with K547L
With B4, the binding result was “binds”.

B5: PfGMPS_K411L (enzyme, Plasmodium falciparum)
chain: B1 chain with K411L
As to B5, the binding result is given as “binds”.

B6: PfGMPS K160L (enzyme, Plasmodium falciparum)
chain: B1 chain with K160L
B6: the binding result is reported as “binds”.

B7: PfGMPS E553L (enzyme, Plasmodium falciparum)
chain: B1 chain with E553L
Take B7: the binding result is “binds”.

B8: PfGMPS H389A (enzyme, Plasmodium falciparum)
chain: B1 chain with H389A
Take B8: the binding result is recorded as “binds”.

B9: PfGMPS D413A (enzyme, Plasmodium falciparum)
chain: B1 chain with D413A
Consider B9, for which the binding result was “binds”.

B10: PfGMPS K376L (enzyme, Plasmodium falciparum)
chain: B1 chain with K376L
For the protein B10, the binding result is “binds”.

B11: PfGMPS R25L (enzyme, Plasmodium falciparum)
chain: B1 chain with R25L
With B11, the binding result was “binds”.

B12: PfGMPS_K386L (enzyme, Plasmodium falciparum)
chain: B1 chain with K386L
In the case of B12, the binding result is reported as “binds”.

B13: PfGMPS_K24L (enzyme, Plasmodium falciparum)
chain: B1 chain with K24L
As to B13, the binding result is on record as “binds”.

B14: PfGMPS_D412A (enzyme, Plasmodium falciparum)
chain: B1 chain with D412A
In the case of B14, the binding result is given as “binds”.

B15: PfGMPS_T387A (enzyme, Plasmodium falciparum)
chain: B1 chain with T387A
With B15, the binding result was “binds”.

B16: PfGMPS_N390A (enzyme, Plasmodium falciparum)
chain: B1 chain with N390A
For B16, the binding result is “binds”.

B17: PfGMPS R539L (enzyme, Plasmodium falciparum)
chain: B1 chain with R539L
Consider B17, for which the binding result is “binds”.

B18: PfGMPS_K415L (enzyme, Plasmodium falciparum)
chain: B1 chain with K415L
Regarding B18, the binding result is “binds”.

B19: PfGMPS_E555L (enzyme, Plasmodium falciparum)
chain: B1 chain with E555L
Regarding B19, the binding result is given as “binds”.
